Results reported in patent US20230044380A1.

Target: T1, CD70 (UniProt P32970)
T1 sequence (looked up): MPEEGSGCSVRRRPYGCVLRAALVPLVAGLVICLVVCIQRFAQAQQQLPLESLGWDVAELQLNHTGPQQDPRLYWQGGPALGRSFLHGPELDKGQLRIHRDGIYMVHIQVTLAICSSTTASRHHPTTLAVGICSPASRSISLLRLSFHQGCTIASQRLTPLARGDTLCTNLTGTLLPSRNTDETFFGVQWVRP
Assay: cell-based or functional assay

B1: CD27.Z (CD70 CAR) (protein)
chain: ATPAPKSCPERHYWAQGKLCCQMCEPGTFLVKDCDQHRKAAQCDPCIPGVSFSPDHHTRPHCESCRHCNSGLLVRNCTITANAECACRNGWQCRDKECTECDPLPNPSLTARSSQALSPHPQPTHLPYVSEMLEARTAGHMQTLADFRQLPARTLSTHWPPQRSLCSSDFIRILVIFSGMFLVFTLAGALFLHQRRKYRSNKGESPVEPAEPCRYSCPREEEGSTIPIQEDYRKPEPACSPRVKFSRSADAPAYQQGQNQLYNELNLGRREEYDVLDKRRGRDPEMGGKPRRKNPQEGLYNELQKDKMAEAYSEIGMKGERRRGKGHDGLYQGLSTATKDTYDALHMQALPPR
B1 showed a percentage of CD107a positive T cells in CD8 positive T cells; CD27 CAR + LACO (A40C.28) T cells stimulated by 786-O (CD70 + + +) of 27.3%, a percentage of CD107a positive T cells in CD8 positive T cells; CD27 CAR + LACO (A40C.28) T cells stimulated by A498-CBG (CD70 + + +) of 22.7% and a percentage of CD107a positive T cells in CD8 positive T cells; CD27 CAR + LACO (A40C.28) T cells stimulated by A549-CBG (CD70 +) of 3.3%. It also gave a percentage of CD107a positive T cells in CD8 positive T cells; CD27 CAR + LACO (A40C.28) T cells stimulated by HS766T-CBG (CD70 +) of 9.7%, a percentage of CD107a positive T cells in CD8 positive T cells; CD27 CAR + LACO (A40C.28) T cells stimulated by Jeko-1-CBG (CD70 + + +) of 34.4% and a percentage of CD107a positive T cells in CD8 positive T cells; CD27 CAR + LACO (A40C.28) T cells stimulated by OVCAR3 (CD70 +) of 6.9%. The percentage of CD107a positive T cells in CD8 positive T cells; CD27 CAR + LACO (A40C.28) T cells stimulated by PC3-CBG (CD70 + +) was 15.9%, the percentage of CD107a positive T cells in CD8 positive T cells; CD27 CAR + LACO (A40C.28) T cells stimulated by Raji-CBG (CD70 + + +) was 30.3% and the percentage of CD107a positive T cells in CD8 positive T cells; CD27 CAR + LACO (A40C.28) T cells stimulated by SKOV3-CBG (CD70 +) was 3.3%. The percentage of CD107a positive T cells in CD8 positive T cells; CD27 CAR + LACO (A40C.28) T cells stimulated by THP1 (CD70 + +) was 22.2%, the percentage of CD107a positive T cells in CD8 positive T cells; CD27 CAR + LACO (A40C.28) T cells stimulated by U87-CBG (CD70 + + +) was 32% and the percentage of CD107a positive T cells in CD8 positive T cells; CD27 CAR + LACO (A40C.28) T cells stimulated by U937 (CD70 + +) was 9%. It also gave a percentage of CD107a positive T cells in CD8 positive T cells; CD27 CAR T cells stimulated by 786-O (CD70 + + +) of 27.6%, a percentage of CD107a positive T cells in CD8 positive T cells; CD27 CAR T cells stimulated by A498-CBG (CD70 + + +) of 30.8% and a percentage of CD107a positive T cells in CD8 positive T cells; CD27 CAR T cells stimulated by A549-CBG (CD70 +) of 4.4%. It also gave a percentage of CD107a positive T cells in CD8 positive T cells; CD27 CAR T cells stimulated by HS766T-CBG (CD70 +) of 15%, a percentage of CD107a positive T cells in CD8 positive T cells; CD27 CAR T cells stimulated by Jeko-1-CBG (CD70 + + +) of 23.1% and a percentage of CD107a positive T cells in CD8 positive T cells; CD27 CAR T cells stimulated by OVCAR3 (CD70 +) of 8.8%. The percentage of CD107a positive T cells in CD8 positive T cells; CD27 CAR T cells stimulated by PC3-CBG (CD70 + +) was 16%, the percentage of CD107a positive T cells in CD8 positive T cells; CD27 CAR T cells stimulated by Raji-CBG (CD70 + + +) was 29.9% and the percentage of CD107a positive T cells in CD8 positive T cells; CD27 CAR T cells stimulated by SKOV3-CBG (CD70 +) was 3.2%. The percentage of CD107a positive T cells in CD8 positive T cells; CD27 CAR T cells stimulated by THP1 (CD70 + +) was 20.2%, the percentage of CD107a positive T cells in CD8 positive T cells; CD27 CAR T cells stimulated by U87-CBG (CD70 + + +) was 37.8% and the percentage of CD107a positive T cells in CD8 positive T cells; CD27 CAR T cells stimulated by U937 (CD70 + +) was 7.1%.
